Measured values taken from patent EP4792821A2 (Beijing Youcare Kechuang Pharmaceutical Technology Co., Ltd., dated 2026).
The star is where a group is joined. Succinyl(4-O-cholesteryl) = CC(C)CCC[C@@H](C)[C@H]1CC[C@H]2[C@@H]3CC=C4C[C@@H](OC(=O)CCC(=O)*)CC[C@]4(C)[C@H]3CC[C@]12C

What follows are binders tested against F protein of RSV A long virus strain (Respiratory Syncytial Virus (RSV) A …, UniProt P12568 26-574) (assay: cell-based or functional assay).
F protein of RSV A long virus strain, sequence (P12568 26-574): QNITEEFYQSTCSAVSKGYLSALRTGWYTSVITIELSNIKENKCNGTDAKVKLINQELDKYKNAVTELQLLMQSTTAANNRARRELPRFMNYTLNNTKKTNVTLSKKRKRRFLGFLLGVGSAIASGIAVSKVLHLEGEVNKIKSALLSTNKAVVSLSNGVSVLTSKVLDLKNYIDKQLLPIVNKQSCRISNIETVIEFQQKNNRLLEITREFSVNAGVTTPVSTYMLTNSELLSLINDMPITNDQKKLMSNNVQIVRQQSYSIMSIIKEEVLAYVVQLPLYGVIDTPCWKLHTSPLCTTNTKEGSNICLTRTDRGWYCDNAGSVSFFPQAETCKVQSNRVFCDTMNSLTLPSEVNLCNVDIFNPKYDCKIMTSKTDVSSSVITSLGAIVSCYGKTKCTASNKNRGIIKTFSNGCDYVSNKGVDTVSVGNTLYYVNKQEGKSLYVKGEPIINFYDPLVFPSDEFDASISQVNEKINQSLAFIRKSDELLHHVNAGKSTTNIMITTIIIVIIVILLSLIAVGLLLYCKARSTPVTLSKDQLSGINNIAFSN

Row | Binder | IC50/nM, plaque reduction, RSV A long on HEp-2 cells (Table 2, Cell fusion inhibition activity)
1 | Ac-FDASIEEVNRRIEESLRRIEESDRRLEVNKKA-NH2 [Compound 1] | 1360 nM
2 | Ac-KIEEVNKKIEESLKKIEESDKKLEEVNKKLEAAAKK(Succinyl(4-O-cholesteryl))-NH2 (SMILES CC[C@H](C)[C@H](NC(=O)[C@H](CCCCN)NC(C)=O)C(=O)N[C@@H](CCC(=O)O)C(=O)N[C@@H](CCC(=O)O)C(=O)N[C@H](C(=O)N[C@@H](CC(N)=O)C(=O)N[C@@H](CCCCN)C(=O)N[C@@H](CCCCN)C(=O)N[C@H](C(=O)N[C@@H](CCC(=O)O)C(=O)N[C@@H](CCC(=O)O)C(=O)N[C@@H](CO)C(=O)N[C@@H](CC(C)C)C(=O)N[C@@H](CCCCN)C(=O)N[C@@H](CCCCN)C(=O)N[C@H](C(=O)N[C@@H](CCC(=O)O)C(=O)N[C@@H](CCC(=O)O)C(=O)N[C@@H](CO)C(=O)N[C@@H](CC(=O)O)C(=O)N[C@@H](CCCCN)C(=O)N[C@@H](CCCCN)C(=O)N[C@@H](CC(C)C)C(=O)N[C@@H](CCC(=O)O)C(=O)N[C@@H](CCC(=O)O)C(=O)N[C@H](C(=O)N[C@@H](CC(N)=O)C(=O)N[C@@H](CCCCN)C(=O)N[C@@H](CCCCN)C(=O)N[C@@H](CC(C)C)C(=O)N[C@@H](CCC(=O)O)C(=O)N[C@@H](C)C(=O)N[C@@H](C)C(=O)N[C@@H](C)C(=O)N[C@@H](CCCCN)C(=O)N[C@@H](CCCCNC(=O)CCC(=O)O[C@H]1CC[C@@]2(C)C(=CC[C@H]3[C@@H]4CC[C@H]([C@H](C)CCCC(C)C)[C@@]4(C)CC[C@@H]32)C1)C(N)=O)C(C)C)[C@@H](C)CC)[C@@H](C)CC)C(C)C) [Compound 10] | 18.1 nM
3 | Ac-WDEFDKKIEEVNKKIEESLKKIEESDKKLEEVNKKLGSGSGK(Succinyl(4-O-cholesteryl))-NH2 [Compound 11] | 99.1 nM
4 | Ac-FDASIEEVNRRIEESLRRIEESDRRLEVNKKAGSGSGK(Succinyl(4-O-cholesteryl))-NH2 (SMILES CC[C@H](C)[C@H](NC(=O)[C@H](CO)NC(=O)[C@H](C)NC(=O)[C@H](CC(=O)O)NC(=O)[C@H](Cc1ccccc1)NC(C)=O)C(=O)N[C@@H](CCC(=O)O)C(=O)N[C@@H](CCC(=O)O)C(=O)N[C@H](C(=O)N[C@@H](CC(N)=O)C(=O)N[C@@H](CCCNC(=N)N)C(=O)N[C@@H](CCCNC(=N)N)C(=O)N[C@H](C(=O)N[C@@H](CCC(=O)O)C(=O)N[C@@H](CCC(=O)O)C(=O)N[C@@H](CO)C(=O)N[C@@H](CC(C)C)C(=O)N[C@@H](CCCNC(=N)N)C(=O)N[C@@H](CCCNC(=N)N)C(=O)N[C@H](C(=O)N[C@@H](CCC(=O)O)C(=O)N[C@@H](CCC(=O)O)C(=O)N[C@@H](CO)C(=O)N[C@@H](CC(=O)O)C(=O)N[C@@H](CCCNC(=N)N)C(=O)N[C@@H](CCCNC(=N)N)C(=O)N[C@@H](CC(C)C)C(=O)N[C@@H](CCC(=O)O)C(=O)N[C@H](C(=O)N[C@@H](CC(N)=O)C(=O)N[C@@H](CCCCN)C(=O)N[C@@H](CCCCN)C(=O)N[C@@H](C)C(=O)NCC(=O)N[C@@H](CO)C(=O)NCC(=O)N[C@@H](CO)C(=O)NCC(=O)N[C@@H](CCCCNC(=O)CCC(=O)O[C@H]1CC[C@@]2(C)C(=CC[C@H]3[C@@H]4CC[C@H]([C@H](C)CCCC(C)C)[C@@]4(C)CC[C@@H]32)C1)C(N)=O)C(C)C)[C@@H](C)CC)[C@@H](C)CC)C(C)C) [Compound 12] | 28.4 nM
5 | Ac-FDASIEEVNRRIEESLRRIEESDRRLEAAAKK(Succinyl(4-O-cholesteryl))-NH2 (SMILES CC[C@H](C)[C@H](NC(=O)[C@H](CO)NC(=O)[C@H](C)NC(=O)[C@H](CC(=O)O)NC(=O)[C@H](Cc1ccccc1)NC(C)=O)C(=O)N[C@@H](CCC(=O)O)C(=O)N[C@@H](CCC(=O)O)C(=O)N[C@H](C(=O)N[C@@H](CC(N)=O)C(=O)N[C@@H](CCCNC(=N)N)C(=O)N[C@@H](CCCNC(=N)N)C(=O)N[C@H](C(=O)N[C@@H](CCC(=O)O)C(=O)N[C@@H](CCC(=O)O)C(=O)N[C@@H](CO)C(=O)N[C@@H](CC(C)C)C(=O)N[C@@H](CCCNC(=N)N)C(=O)N[C@@H](CCCNC(=N)N)C(=O)N[C@H](C(=O)N[C@@H](CCC(=O)O)C(=O)N[C@@H](CCC(=O)O)C(=O)N[C@@H](CO)C(=O)N[C@@H](CC(=O)O)C(=O)N[C@@H](CCCNC(=N)N)C(=O)N[C@@H](CCCNC(=N)N)C(=O)N[C@@H](CC(C)C)C(=O)N[C@@H](CCC(=O)O)C(=O)N[C@@H](C)C(=O)N[C@@H](C)C(=O)N[C@@H](C)C(=O)N[C@@H](CCCCN)C(=O)N[C@@H](CCCCNC(=O)CCC(=O)O[C@H]1CC[C@@]2(C)C(=CC[C@H]3[C@@H]4CC[C@H]([C@H](C)CCCC(C)C)[C@@]4(C)CC[C@@H]32)C1)C(N)=O)[C@@H](C)CC)[C@@H](C)CC)C(C)C) [Compound 19] | 16.2 nM
6 | Ac-DDEFNQKINEVNEKIEEILKKIEESDRKLEESDKKA-NH2 [Compound 2] | > 8000 nM
7 | Ac-YDELVFDASQVNEKINQSLEKIRKSDELLHNV-NH2 [Compound 23] | 2330 nM
8 | Ac-FDFDEFDASISQVNEKINESLAFIRLAFIRKSDELLEAAAKK-NH2 [Compound 24] | 2650 nM
9 | Ac-DEFDKKKIEEVNKKIEESLKKIEESDKKLEEV-NH2 [Compound 3] | 4430 nM
10 | Ac-SDEQVNEKINQSLAFIRRIRKLLHNEAAAKK(Succinyl(4-O-cholesteryl))-NH2 (SMILES CC[C@H](C)[C@H](NC(=O)[C@H](Cc1ccccc1)NC(=O)[C@H](C)NC(=O)[C@H](CC(C)C)NC(=O)[C@H](CO)NC(=O)[C@H](CCC(N)=O)NC(=O)[C@H](CC(N)=O)NC(=O)[C@@H](NC(=O)[C@H](CCCCN)NC(=O)[C@H](CCC(=O)O)NC(=O)[C@H](CC(N)=O)NC(=O)[C@@H](NC(=O)[C@H](CCC(N)=O)NC(=O)[C@H](CCC(=O)O)NC(=O)[C@H](CC(=O)O)NC(=O)[C@H](CO)NC(C)=O)C(C)C)[C@@H](C)CC)C(=O)N[C@@H](CCCNC(=N)N)C(=O)N[C@@H](CCCNC(=N)N)C(=O)N[C@H](C(=O)N[C@@H](CCCNC(=N)N)C(=O)N[C@@H](CCCCN)C(=O)N[C@@H](CC(C)C)C(=O)N[C@@H](CC(C)C)C(=O)N[C@@H](Cc1c[nH]cn1)C(=O)N[C@@H](CC(N)=O)C(=O)N[C@@H](CCC(=O)O)C(=O)N[C@@H](C)C(=O)N[C@@H](C)C(=O)N[C@@H](C)C(=O)N[C@@H](CCCCN)C(=O)N[C@@H](CCCCNC(=O)CCC(=O)O[C@H]1CC[C@@]2(C)C(=CC[C@H]3[C@@H]4CC[C@H]([C@H](C)CCCC(C)C)[C@@]4(C)CC[C@@H]32)C1)C(N)=O)[C@@H](C)CC) [Compound 31] | 2220 nM
11 | Ac-ILELVNKKIEQSLKFIEKSDKLLENEAAAKK(Succinyl(4-O-cholesteryl))-NH2 (SMILES CC[C@H](C)[C@H](NC(C)=O)C(=O)N[C@@H](CC(C)C)C(=O)N[C@@H](CCC(=O)O)C(=O)N[C@@H](CC(C)C)C(=O)N[C@H](C(=O)N[C@@H](CC(N)=O)C(=O)N[C@@H](CCCCN)C(=O)N[C@@H](CCCCN)C(=O)N[C@H](C(=O)N[C@@H](CCC(=O)O)C(=O)N[C@@H](CCC(N)=O)C(=O)N[C@@H](CO)C(=O)N[C@@H](CC(C)C)C(=O)N[C@@H](CCCCN)C(=O)N[C@@H](Cc1ccccc1)C(=O)N[C@H](C(=O)N[C@@H](CCC(=O)O)C(=O)N[C@@H](CCCCN)C(=O)N[C@@H](CO)C(=O)N[C@@H](CC(=O)O)C(=O)N[C@@H](CCCCN)C(=O)N[C@@H](CC(C)C)C(=O)N[C@@H](CC(C)C)C(=O)N[C@@H](CCC(=O)O)C(=O)N[C@@H](CC(N)=O)C(=O)N[C@@H](CCC(=O)O)C(=O)N[C@@H](C)C(=O)N[C@@H](C)C(=O)N[C@@H](C)C(=O)N[C@@H](CCCCN)C(=O)N[C@@H](CCCCNC(=O)CCC(=O)O[C@H]1CC[C@@]2(C)C(=CC[C@H]3[C@@H]4CC[C@H]([C@H](C)CCCC(C)C)[C@@]4(C)CC[C@@H]32)C1)C(N)=O)[C@@H](C)CC)[C@@H](C)CC)C(C)C) [Compound 32] | 296 nM
12 | Ac-SLEQVNKKINQSLKVNKKSDKLLENEAAAKK(Succinyl(4-O-cholesteryl))-NH2 (SMILES CC[C@H](C)[C@H](NC(=O)[C@H](CCCCN)NC(=O)[C@H](CCCCN)NC(=O)[C@H](CC(N)=O)NC(=O)[C@@H](NC(=O)[C@H](CCC(N)=O)NC(=O)[C@H](CCC(=O)O)NC(=O)[C@H](CC(C)C)NC(=O)[C@H](CO)NC(C)=O)C(C)C)C(=O)N[C@@H](CC(N)=O)C(=O)N[C@@H](CCC(N)=O)C(=O)N[C@@H](CO)C(=O)N[C@@H](CC(C)C)C(=O)N[C@@H](CCCCN)C(=O)N[C@H](C(=O)N[C@@H](CC(N)=O)C(=O)N[C@@H](CCCCN)C(=O)N[C@@H](CCCCN)C(=O)N[C@@H](CO)C(=O)N[C@@H](CC(=O)O)C(=O)N[C@@H](CCCCN)C(=O)N[C@@H](CC(C)C)C(=O)N[C@@H](CC(C)C)C(=O)N[C@@H](CCC(=O)O)C(=O)N[C@@H](CC(N)=O)C(=O)N[C@@H](CCC(=O)O)C(=O)N[C@@H](C)C(=O)N[C@@H](C)C(=O)N[C@@H](C)C(=O)N[C@@H](CCCCN)C(=O)N[C@@H](CCCCNC(=O)CCC(=O)O[C@H]1CC[C@@]2(C)C(=CC[C@H]3[C@@H]4CC[C@H]([C@H](C)CCCC(C)C)[C@@]4(C)CC[C@@H]32)C1)C(N)=O)C(C)C) [Compound 33] | 5040 nM
